Publication PMC10288512, “MUC1 Glycopeptide Vaccine Modified with a GalNAc Glycocluster Targets the Macrophage Galactose C-type Lectin on Dendritic Cells to Elicit an Improved Humoral Response” (Journal of the American Chemical Society, 2023)

Tests used:
[1] = target: MGL receptor on murine bone marrow-derived dendritic cells (mouse (endogenous in BMDCs)) (UniProt Q8JZN1)
[2] = target: peptide 12, MUC1 tandem repeat peptide with the TPEaa trivalent alpha-S-GalNAc glycocluster 1 at the N-terminus, biotinylated; experiment: ELISA; biotinylated peptides 9-14 coupled to streptavidin-coated plates at twofold serial dilutions; probed with recombinant MGL-Fc at a constant concentration; detection with goat anti-human Fc-peroxidase; EC50 from curve fitting over the peptide concentration
[3] = target: peptide 13, MUC1 tandem repeat (glyco)peptide with the TPEaa trivalent alpha-S-GalNAc glycocluster 1 at the N-terminus, biotinylated; experiment: as above
[4] = target: peptide 14, MUC1 tandem repeat (glyco)peptide with a triethylene glycol spacer and the TPEaa trivalent alpha-S-GalNAc glycocluster 1 at the N-terminus, biotinylated; experiment: as above

UniProt Q8JZN1, sequence (Q8JZN1 entry or part of it): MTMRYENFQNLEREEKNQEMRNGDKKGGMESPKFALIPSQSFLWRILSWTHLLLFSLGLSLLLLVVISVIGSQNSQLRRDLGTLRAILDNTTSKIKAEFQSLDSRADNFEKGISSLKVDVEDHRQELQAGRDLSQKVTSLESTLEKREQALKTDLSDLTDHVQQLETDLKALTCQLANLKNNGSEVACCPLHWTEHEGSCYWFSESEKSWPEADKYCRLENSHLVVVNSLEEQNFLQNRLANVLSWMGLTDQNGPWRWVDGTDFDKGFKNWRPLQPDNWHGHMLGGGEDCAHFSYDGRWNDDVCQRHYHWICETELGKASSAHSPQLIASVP

## peptide 12, MUC1 tandem repeat peptide with the TPEaa trivalent alpha-S-GalNAc glycocluster 1 at the N-terminus, biotinylated
[1]
  decrease in accessible MGL on the BMDC surface (anti-MGL antibodies, flow cytometry) after treatment with peptide 12 for 30 min at 37 °C, against untreated cells: 48%

B1: recombinant MGL (macrophage galactose-type lectin) tagged with a human IgG1 Fc fragment (Fc fusion)
chain: QNSKFQRDLVTLRTDFSNFTSNTVAEIQALTSQGSSLEETIASLKAEVEGFKQERQAGVSELQEHTTQKAHLGHCPHCPSVCVPVHSEMLLRVQQLVQDLKKLTCQVATLNNNASTEGTCCPVNWVEHQDSCYWFSHSGMSWAEAEKYCQLKNAHLVVINSREEQNFVQKYLGSAYTWMGLSDPEGAWKWVDGTDYATGFQNWKPGQPDDWQGHGLGGGEDCAHFHPDGRWNDDVCQRPYHWVCEAGLGQTSQESH
[2]
  fold avidity against peptide 11: 10 fold
[3]
  EC50: 3.9 nM
  fold avidity against peptide 11: 10 fold
[4]
  EC50: 2.65 nM
